Results on 1 molecule are retold here after patent US20170267766A1.

In assay [1] the target is monkey IGF-1R (on COS-7 cells) (African green monkey). The assay can be described thus: FACS titration, Cos-7.
Assay [2] has as its target soluble recombinant human IGF-1R hetero-tetramere with C-terminal 10-His tag (R&D Systems 305-GR) (human) (UniProt P08069). Nature of the assay: SPR Biacore X100, Ln(2)/koff, mean of 4. For orientation: Surface plasmon resonance follows binding to a sensor surface in real time, without labels.
The target in assay [3] is monkey IGF-1R (on COS-7 cells) (African green monkey). Nature of the assay: FACS on COS-7 cells, 4°C; inset table, axis log [M] (Table 14b prints it rounded as 5.1E-10).
Assay [4] concerns the target human IGF-1R (native, on cells) (human) (UniProt P08069). The assay can be described thus: FACS on MCF-7 cells, 4°C; inset table, axis log [M] (Table 14b prints it rounded as 7.09E-10).
For assay [5] the target is unchanged. The assay can be described thus: FACS titration, MCF-7.
Assay [6] concerns the target soluble recombinant human IGF-1R hetero-tetramere with C-terminal 10-His tag (R&D Systems 305-GR) (human) (UniProt P08069). The assay can be described thus: SPR Biacore X100, His-captured h-IGF-1R ~600 RU, mean of 4.
The target of assay [7] is human IGF-1R (native, on cells) (human) (UniProt P08069). Nature of the assay: cell-based or functional assay.

B1: hz208F2 H026/L024 (antibody, from a related filing, V domains shown)
VH: QVQLVQSGAEVKKPGASVKMSCKASGYTFTSYYIYWVKQAPGQGLEWLGWIWPGDGSTKYNEKFQGRVTLTADKSSNTAYMFLSSLRSEDTAVYFCASPMITPNYAMDYWGQGTLVTVSS
VL: DIQMTQSPSSLSASVGDRVTISCRASQDISKYLNWYQQKPGKAPKLLIYYTSRLHSGVPSRFSGRGSGTDYSLTISNLQPEDFATYFCQQGSTLPYTFGGGTKVEIKR
For B1, the EC50 (in general, the concentration giving half of the maximal effect) was found to be 0.51 nM in assay [1], 0.511 nM in assay [3], 0.71 nM in assay [4] and 0.709 nM in assay [5]. Besides, in assay [2], the half-life of the complex lay in the range of 2 to 3 h. Moreover, the dissociation constant Kd (usually a measure of binding affinity in units of concentration) in assay [6] was 0.06 nM. In assay [7], the % internalization stood at 87%. The same molecule yielded a ΔMFI (MCF-7, 10 µg/ml, 4 h) in assay [7] of 344 MFI.
